The target in assay [1] is T1, RSV postfusion F (postF), subtype A (respiratory syncytial virus subtype A, UniProt P03420 26-513).
T1 construct: also called Postfusion subtype A; F deltaFP
Put plainly: BLI.

Assay [2] deals with T2, RSV prefusion F (preF), subtype B (respiratory syncytial virus subtype B).
T2 construct: also called Prefusion subtype B
Kind of assay: BLI, IgG.

Where a chain is given by its changes, count along the chain named.

B1: ADI-25548 (antibody, V domains shown)
VH: EVQLVESGGGLIQPGGSLRLSCAASGFTVSSNYMSWVRQAPGKGLEWVSVIYSGGSTYYADSVKGRFTISRDNSKNTLYLQMNSLRAEDTAVYYCARGPQFGVSYSSGWYSFDYWGQGTLVTVSS
VL: QSVLIQPRSVSGSPGQSVTISCTGTSSDVGGYNYVSWYQQHPGKAPKLMIYDVSKRPSGVPDRFSGSKSGNTASLTISGLQAEDEADYYCCSYAGSYTFVVFGGGTKLTVL
notes: full-length IgG
For the molecule B1, the binding result in assay [1] was “no binding”.

B2: ADI-19430 (antibody, V domains shown)
VH: QVQLVQSGAEVKKPGSSVKVSCKASGGTFSSYTISWVRQAPGQGLEWMGRIIPILGIANYAQKFQGRVTITADKSTSTAYMELSSLRSEDTAVYYCARDGGPYYYDSSGYYRLDYWGQGTLVTVSS
VL: DIRMTQSPLSLPVTLGQPASISCRSSQSLVYSDGNTYLNWFQQRPGQSPRRLIYKVSNRDSGVPDRFSGSGSGTDFTLKISRVEAEDVGVYYCMQGTHWTYTFGQGTKLEIK
notes: full-length IgG
Take B2: the binding result in assay [1] was “no binding”. Binding in assay [2] was characterised by a dissociation constant (Kd) of 16.8 nM.

B3: ADI-19450 (antibody, V domains shown)
VH: EVQLLESGGGLVQPGGSLRLSCAASGFTFSSYWMHWVRQAPGKGLVWVSRINSDGSSTSYADSVKGRFTISRDNAKNTLYLQMNSLRAEDTAVYYCARAPISILRFLGGYFDYWGQGTLVTVSS
VL: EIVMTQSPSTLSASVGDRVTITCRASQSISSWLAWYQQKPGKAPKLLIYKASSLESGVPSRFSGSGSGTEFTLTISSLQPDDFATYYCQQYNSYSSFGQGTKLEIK
notes: full-length IgG; also called Ab 160
Consider B3, for which the binding result in assay [1] is reported as “no binding”. In assay [2], this molecule displayed a Kd of 38.6 nM.

B4: ADI-24795 (antibody, V domains shown)
VH: EVQLVESGGGLVKPGGSLRLSCAASGFTFSSYSMNWVRQAPGKGLEWVSSISSSSSYIYYADSVKGRFTISRDNAKNSLYLQMNSLRAEDTAVYYCARVGYSSSSGAFDYWGQGTLVTVSS
VL: QSVLTQPPSVSGAPGQRVTISCTGSSSNIGAGYDVHWYQQLPGTAPKLLIYGNSNRPSGVPDRFSGSKSGTSASLAITGLQAEDEADYYCQSYDSSLSGSVFGGGTKVTVL
notes: full-length IgG; also called Ab 363
For the molecule B4, the binding result in assay [1] is given as “no binding”. The molecule further came in with a Kd in assay [2] of 34.2 nM.

B5: ADI-19449 (antibody, V domains shown)
VH: B4 VH with V99D, G100S, Y101G, S103Y, S104L, G106Y, Y110I, L116M
VL: B4 VL with Q1S, S2Y, V3E, S100Y, G104T
notes: full-length IgG
For B5, the binding result in assay [1] is given as “no binding”. Moreover, in assay [2], the Kd stood at 26 nM.

B6: ADI-22758 (antibody, V domains shown)
VH: QVQLVESGGGLVKPGGSLRLSCAASGFSISSYSMNWVRQAPGKGLEWVSSISGSSSYIYYGDSVKGRFTISRDNARNSLYLQMNSLRAEDTAVYYCARGDIAAAGTITYYFAHWGQGTLVTVSS
VL: B4 VL with P42T, Y51F, S54N, S100A, K107Q, V108L
notes: full-length IgG
In the case of B6, the binding result in assay [1] is listed as “no binding”.

B7: ADI-24800 (antibody, V domains shown)
VH: EVQLLESGGGLVKPGGSLRLSCAASGFTFSSYSMNWVRQAPGKGLEWVSSISSSSSYIYYADSVKGRFTISRDNAKNSLYLQMNSLRAEDTAVYYCARVRGGYSYGYGMDVWGQGTTVTVSS
VL: B4 VL with L4V, Y33F, R63Q, S100V, V108L
notes: full-length IgG
As to B7, in assay [1], the binding result is recorded as “no binding”. In assay [2], this molecule had a Kd of 51.4 nM.

B8: ADI-19440 (antibody, V domains shown)
VH: EVQLVESGGGLVQPGGSLRLSCAASGFTFSSYSMNWVRQAPGKGLEWVSYISSSSSTIYYADSVKGRFTISRDNAKNSLYLQMNSLRAEDTAVYYCAREGYSGSYGYYFDYWGQGTLVTVSS
VL: B4 VL with G104T, V108L
notes: full-length IgG
With B8, the binding result in assay [1] is given as “no binding”. In addition, the Kd in assay [2] was found to be 14.3 nM.

B9: ADI-24858 (antibody, V domains shown)
VH: EVQLLESGGGLVKPGGSLRLSCAASGFTFSSYSMNWVRQAPGKGLEWVSSISSSSSYIYYADSVKGRFTISRDNAKNSLYLQMNSLRAEDTAVYYCARGGYSYGYSFDYWGQGTLVTVSS
VL: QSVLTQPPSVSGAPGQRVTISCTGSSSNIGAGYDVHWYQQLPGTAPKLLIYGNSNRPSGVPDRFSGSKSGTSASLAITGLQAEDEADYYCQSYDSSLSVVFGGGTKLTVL
notes: full-length IgG
As to B9, the binding result in assay [1] is reported as “no binding”. In addition, the Kd in assay [2] came out at 26.3 nM.

B10: ADI-22776 (antibody, V domains shown)
VH: EVQLLESGGGLVKPGGSLRLSCAASGFTFSDYYMSWIRQAPGKGLEWVSYISSSGSTIYYADSVKGRFTISRDNAKNSLYLQMNSLRAEDTAVYYCAREIGGSYTGGAFDIWGQGTMVTVSS
VL: SYELTQPPSVSVAPGQTARITCGGNNIGSKSVHWYQQKPGQAPVLVVYDDSDRPSGIPERFSGSNSGNTATLTISRVEAGDEADYYCQVWDSSSDHVVFGGGTKVTVL
notes: full-length IgG
On to B10, for which the binding result in assay [1] is listed as “no binding”.

B11: ADI-25556 (antibody, V domains shown)
VH: QVQLVQSGGGLVKPGGSLRLSCAASGFTFSSYSMNWVRQAPGKGLEWVSSISSSSSYIYYADSVKGRFTISRDNAKNSLYLQMNSLRAEDTAVYYCARQRGGIAVAGTYFDLWGRGTLVTVSS
VL: QSVLTQPPSVSGAPGQRVTISCTGSSSNIGAGYDVHWYQQLPGTAPKLLIYGNSNRPSGVPDRFSGSKSGTSASLAITGLQAEDEADYYCQSYDSTVVFGGGTKVTVL
notes: full-length IgG; also called Ab 450
On to B11, for which, in assay [1], the binding result was “no binding”. This molecule had a Kd in assay [2] of 42 nM.

B12: ADI-24845 (antibody, V domains shown)
VH: EVQLVESGGGLVKPGGSLRLSCAASGFTFSSYSMNWVRQAPGKGLEWVSSISSSSSYIYYADSVKGRFTISRDNAKNSLYLQMNSLRAEDTAVYYCARDYCSGGSCYLAAFDIWGQGTTVTVSS
VL: QPVLTQPASVSGSPGQSITISCTGTSSDVGGYNYVSWYQQHPGKAPKLMIYEVSNRPSGVSNRFSGSKSGNTASLTISGLQAEDEADYYCSSYTSSSTPVVFGGGTKLTVL
notes: full-length IgG
As to B12, in assay [1], the binding result is “no binding”. Also, binding in assay [2] was put at a Kd of 36.7 nM.

B13: ADI-19454 (antibody, V domains shown)
VH: B12 VH with V5L, D99G, L108S, A109H, A110Y, D112Q, I113H, T119L
VL: QSVLTQPASVSGSPGQSITISCTGTSSDVGGYNYVSWYQQHPGKAPKLMIYDVSNRPSGVSNRFSGSKSGNTASLTISGLQAEDEADYYCSSYTSSSTVVFGGGTKVTVL
notes: full-length IgG
For the molecule B13, the binding result in assay [1] is on record as “no binding”. The molecule further gave a Kd in assay [2] of 15.7 nM.

B14: ADI-25468 (antibody, V domains shown)
VH: QVQLVQSGAEVKKPGESLKISCKGSGYSFTSYWIGWVRQMPGKGLEWMGIIYPGDSDTRYSPSFQGQVTISADKSISTAYLQWSSLKASDTAMYYCARHVGQVYCSSTSCYTSREYYFDYWGQGTLVTVSS
VL: not shown
notes: full-length IgG
As to B14, in assay [1], the binding result is “no binding”.

B15: ADI-24823 (antibody, V domains shown)
VH: EVQLLESGGGLVKPGGSLRLSCAASGFTFSSYSMNWVRQAPGKGLEWVSSISSSSSYIYYADSVKGRFTISRDNAKNSLYLQMNSLRAEDTAVYYCAREGDYYGSGRPFDYWGQGTLVTVSS
VL: QSVVTQPPSVSGAPGQRVTISCTGSSSNIGAGYDVHWYQQLPGTAPKLLIYGNSNRPSGVPDRFSGSKSGTSASLAITGLQAEDEADYYCQSYDSSLSVVFGGGTKLTVL
notes: full-length IgG
For B15, the binding result in assay [1] is “no binding”. The same molecule had a Kd in assay [2] of 6.03 nM.

B16: ADI-22765 (antibody, V domains shown)
VH: EVQLVESGGGLVKPGGSLRLSCAASGFTFSSYSMNWVRQAPGKGLEWVSSISSSSSYIYYADSVKGRFTISRDNAKNSLYLQMNSLRAEDTAVYYCARDRGDGYNYDYWGQGTLVTVSS
VL: B15 VL with S2P, V4L, L107V
notes: full-length IgG
On to B16, for which the binding result in assay [1] is listed as “no binding”.

B17: ADI-25557 (antibody, V domains shown)
VH: B8 VH with V5L, Q13K, Y50S, T57Y, E99G, G100Y, Y101G, G106L, Y107D
VL: QPGLTQPPSVSGAPGQRVTISCTGSSSNIGAGYDVHWYQQLPGTAPKLLIYGNSNRPSGVPDRFSGSKSGTSASLAITGLQAEDEADYYCQSYDSSLSGFYVFGTGTKLTVL
notes: full-length IgG
With B17, the binding result in assay [1] is recorded as “no binding”. The Kd in assay [2] came to 33.3 nM.

B18: ADI-19502 (antibody, V domains shown)
VH: EVQLVESGGGVVQPGGSLRLSCAASGFTFSSDGMHWVRQAPGKGLEWVAFIQYDGTNKYYVDSVKGRFTISRDNSKNTLYLQMNSLRAEDTAVYYCAKDQGFRYSSSWYAFDIWGQGTMVTVSS
VL: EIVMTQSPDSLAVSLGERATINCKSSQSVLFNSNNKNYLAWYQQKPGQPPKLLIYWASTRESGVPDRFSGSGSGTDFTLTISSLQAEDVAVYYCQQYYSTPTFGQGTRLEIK
notes: full-length IgG
As to B18, in assay [1], the binding result is “no binding”.

B19: ADI-25598 (antibody, V domains shown)
VH: QVQLQESGPGLVKPSETLSLTCTVSPPSISSSSYYWGWIRQPPGKGLEWIGSIYYSGSTYYNPSLKSRVTISVDTSKNQFSLKLSSVTAADTAVYYCARPDSSGAFDIWGQGTMVTVSS
VL: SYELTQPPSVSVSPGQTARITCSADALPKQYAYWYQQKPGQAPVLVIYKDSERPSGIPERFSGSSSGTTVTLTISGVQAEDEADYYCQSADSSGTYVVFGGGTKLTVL
notes: full-length IgG
For the molecule B19, the binding result in assay [1] is “no binding”.

B20: ADI-19500 (antibody, V domains shown)
VH: EVQLVESGGGLVQPGGSLRLSCAASGFTFSSYSMNWVRQAPGKGLEWVSYISSSSSTIYYADSVKGRFTISRDNAKNSLYLQMNSLRAEDTAVYYCARGNTVTTFLDYWGQGTLVTVSS
VL: DIRLTQSPSSFSASTGDRVTITCRASQGISSYLAWYQQKPGKAPKLLIYAASTLQSGVPSRFSGSGSGTDFTLTISCLQSEDFATYYCQQYYSYPPLTFGGGTKVDIK
notes: full-length IgG
As to B20, the binding result in assay [1] is reported as “no binding”.

B21: ADI-22769 (antibody, V domains shown)
VH: QVQLVQSGGGLVQPGGSLRLSCAASGFTFSDHYMDWVRQAPGKGLEWVGRTRNKANSYTTEYAASVKGRFTISRDDSKNSLYLQMNSLKTEDTAVYYCARVGYYYYYGMDVWGQGTTVTVSS
VL: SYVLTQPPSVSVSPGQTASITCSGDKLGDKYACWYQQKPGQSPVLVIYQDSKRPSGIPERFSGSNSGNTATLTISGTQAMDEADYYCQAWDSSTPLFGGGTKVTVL
notes: full-length IgG
On to B21, for which the binding result in assay [1] is “no binding”.

B22: ADI-25542 (antibody, V domains shown)
VH: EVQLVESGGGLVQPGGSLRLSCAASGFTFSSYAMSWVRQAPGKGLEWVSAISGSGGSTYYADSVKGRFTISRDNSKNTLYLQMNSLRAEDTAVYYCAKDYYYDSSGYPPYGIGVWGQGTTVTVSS
VL: QTVVTQEPSFSVSPGGTVTLTCGLSSGSVSTSYYPSWYQQTPGQAPRTLIYSTNTRSSGVPDRFSGSILGNKAALTITGAQADDESDYYCVLYMGSGIWVFGGGTKVTVL
notes: full-length IgG
With B22, the binding result in assay [1] was “no binding”.

These data come from patent US20260258115A1 (MAPP BIOPHARMACEUTICAL, published 2026).
